Test results as given in patent US20190359697A1 (Scripps Research, published 2019).
Changes are numbered by the printed parent chain. Names may count otherwise.

B1: hFMCL2b-LCNT/hFMCH4b (Fab, V domains shown)
VH: QVQLQESGPGLVKPSETLSVTCTVSGVSLPDYGVSWIRQPPGKGLEWLGVIWGSETTYYNPSLKSRLTISKDNSKNQVSLKMSSLTAADTAVYYCAKHYYYGGSYAMDYWGQGTLVTVSS
VL: DIQMTQSPSSLSASVGDRVTITCRASQDISKYLNWYQQKPGKAVKLLIYHTSRLHSGVPSRFSGSGSGTDYTLTISSLQPEDFATYFCQQGATLPYTFGQGTKLEIK
B2: hFMCL2c-LCNT/hFMCH4b (Fab, V domains shown)
VH: B1 VH
VL: B1 VL
B3: hFMCL2a-LCNT/hFMCH4b (Fab, V domains shown)
VH: B1 VH
VL: B1 VL with F87Y
B4: hFMCL2/H4b WT (antibody, V domains shown)
VH: B1 VH
VL: B1 VL with V44P, F87Y
B5: hFMCL2b/H4c(Q1E-V20L)-WT (antibody, V domains shown)
VH: B1 VH with Q1E, V20L, P61S, S62A
VL: B1 VL
B6: hFMCL2b/H4c(Q1E)-WT (antibody, V domains shown)
VH: B1 VH with Q1E, P61S, S62A
VL: B1 VL
B7: hFMCL2b/H4b(Q1E-V20L)-WT (antibody, V domains shown)
VH: B1 VH with Q1E, V20L
VL: B1 VL
B8: hFMCL2b(V44L)/H4c(Q1E)-WT (antibody, V domains shown)
VH: B1 VH with Q1E, P61S, S62A
VL: B1 VL with V44L
B9: hFMCL2b/H4c-x-(Q1E)-WT (antibody, V domains shown)
VH: B1 VH with Q1E, V20L, L48I, P61S, S62A, L67V, V78F, M82L, L85V
VL: B1 VL
B10: hFMCL2b/H4b(Q1E)-WT (antibody, V domains shown)
VH: B1 VH with Q1E
VL: B1 VL
B11: hFMCL2b/H4b-x-(Q1E)-WT (antibody, V domains shown)
VH: B1 VH with Q1E, V20L, L48I, L67V, V78F, M82L, L85V
VL: B1 VL
B12: hFMCL2/H4b wt (antibody, V domains shown)
VH: B1 VH
VL: B1 VL with V44P, F87Y
B13: hFMCL2/H4a WT (antibody, V domains shown)
VH: B1 VH with N73T
VL: B1 VL with V44P, F87Y
B14: hFMCL2/H2 WT (antibody, V domains shown)
VH: B1 VH with N73T, K97R
VL: B1 VL with V44P, F87Y
B15: hFMCL2-LCNT/hFMCH4c (Fab, V domains shown)
VH: B1 VH with P61S, S62A
VL: B1 VL with V44P, F87Y
B16: hFMCL2-LCNT/hFMCH4b (Fab, V domains shown)
VH: B1 VH
VL: B1 VL with V44P, F87Y
B17: hFMCL2b(A92N)-LCNT/hFMCH4c(Q1E) (Fab, V domains shown)
VH: B1 VH with Q1E, P61S, S62A
VL: B1 VL with A92N
B18: hFMCL2/H3 WT (antibody, V domains shown)
VH: B1 VH with K97R
VL: B1 VL with V44P, F87Y

Target: T1, CD19 (UniProt P15391 20-556)
T1 chain: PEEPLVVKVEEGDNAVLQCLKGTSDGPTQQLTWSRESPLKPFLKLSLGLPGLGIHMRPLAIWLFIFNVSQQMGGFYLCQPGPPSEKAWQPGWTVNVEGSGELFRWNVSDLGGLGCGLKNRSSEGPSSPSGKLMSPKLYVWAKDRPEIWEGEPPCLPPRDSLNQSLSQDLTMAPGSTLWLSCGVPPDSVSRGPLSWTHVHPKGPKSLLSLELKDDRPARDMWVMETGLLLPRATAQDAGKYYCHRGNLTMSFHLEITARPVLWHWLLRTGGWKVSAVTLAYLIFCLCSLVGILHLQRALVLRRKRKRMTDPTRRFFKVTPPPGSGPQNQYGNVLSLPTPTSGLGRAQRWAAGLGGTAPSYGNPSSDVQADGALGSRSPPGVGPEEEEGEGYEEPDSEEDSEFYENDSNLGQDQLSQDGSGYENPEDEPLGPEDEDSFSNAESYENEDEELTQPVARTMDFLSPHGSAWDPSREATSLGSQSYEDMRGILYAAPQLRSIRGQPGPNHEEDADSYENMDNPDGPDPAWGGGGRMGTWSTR
Experiment: flow cytometry cell binding; FIG. 6

| EC50 | Binder |
| --- | --- |
| 1.22 nM | B1 |
| 1.39 nM | B2 |
| 1.61 nM | B3 |

Target: T1, CD19
Experiment: flow cytometry cell binding; FIG. 7

| EC50 | Binder |
| --- | --- |
| 2.27 nM | B1 |
| 1.68 nM | B2 |
| 5.38 nM | B4 |
| 2.43 nM | B3 |

Target: T1, CD19
Experiment: flow

| EC50 | Binder |
| --- | --- |
| 1.18 nM | B5 |
| 0.809 nM | B6 |
| 0.875 nM | B7 |
| 1.72 nM | B8 |
| 16.9 nM | B9 |
| 0.987 nM | B10 |
| 1.87 nM | B11 |

Target: T1, CD19
Experiment: flow cytometry cell binding; FIG. 8

| EC50 | Binder |
| --- | --- |
| 3.84 nM | B12 |

These binders were tested against T2, CD19 (UniProt P15391 20-556, limits assumed) (assay: cell-based or functional assay).
T2 sequence (looked up): T1 chain

| Binder | EC50 of cytotoxicity (LDH), sCAR-T cells + switch vs CD19+ RS4;11, Average of the repeat assays | EC50 of cytotoxicity (LDH), sCAR-T cells + switch vs CD19+ RS4;11, assay DTR-5-15 (PBMC) | EC50 of cytotoxicity (LDH), sCAR-T cells + switch vs CD19+ RS4;11, assay DTR-5-16 (CD4:CD8) | EC50 of cytotoxicity (LDH), sCAR-T cells + switch vs CD19+ RS4;11, assay DTR-5-50 (PBMC) | EC50 of cytotoxicity (LDH), sCAR-T cells + switch vs CD19+ RS4;11, assay DTR-5-51 (CD4:CD8) |
| --- | --- | --- | --- | --- | --- |
| B5 | 0.013 nM | 0.00752 nM | 0.0153 nM | 0.0144 nM | 0.0148 nM |
| B1 | 0.00621 nM | 0.00517 nM | 0.00578 nM | 0.00393 nM | 0.00996 nM |
| B6 | 0.00951 nM | 0.0071 nM | 0.00941 nM | 0.00825 nM | 0.0133 nM |
| B2 | 0.00518 nM | 0.00404 nM | 0.00325 nM | 0.00378 nM | 0.00965 nM |
| B7 | 0.00996 nM | 0.00963 nM | 0.0131 nM | 0.00748 nM | 0.0096 nM |
| B8 | 0.00745 nM | 0.00204 nM | 0.00845 nM | 0.00701 nM | 0.0123 nM |
| B9 | 0.0442 nM | 0.0283 nM | 0.0818 nM | 0.0151 nM | 0.0515 nM |
| B13 | 0.0407 nM | 0.0432 nM | 0.0507 nM | 0.0283 nM | 0.0407 nM |
| B14 | 0.0843 nM | 0.141 nM | 0.079 nM | 0.0386 nM | 0.0785 nM |
| B10 | 0.0113 nM | 0.00715 nM | 0.0105 nM | 0.00697 nM | 0.0207 nM |
| B15 | 0.018 nM | 0.0166 nM | 0.016 nM | 0.0092 nM | 0.0301 nM |
| B16 | 0.0156 nM | 0.0214 nM | 0.00743 nM | 0.0187 nM | 0.0146 nM |
| B3 | 0.0068 nM | 0.0104 nM | 0.00603 nM | 0.00529 nM | 0.00545 nM |
| B11 | 0.0538 nM | 0.0296 nM | 0.0776 nM | 0.0438 nM | 0.0639 nM |
| B17 | 0.00992 nM | 0.00873 nM | 0.00919 nM | 0.00655 nM | 0.0152 nM |
| B18 | 0.0876 nM | 0.139 nM | 0.0771 nM | 0.0614 nM | 0.0726 nM |

Target: T1, CD19
Experiment: flow cytometry cell binding; FIG. 5; WT switch (no PNE)

| EC50 | Binder |
| --- | --- |
| 4.13 nM | B4 |
| 6.65 nM | B13 |
| 45.6 nM | B14 |
| 23.9 nM | B18 |
